# Columns and labels:
# [1] = target: T1, Zymomonas mobilis fructokinase EC 2.7.1.4 (Zymomonas mobilis subsp. mobilis, UniProt Q03417); assay: Kinetic properties, sugar specificity and glucose inhibition of purified fructokinase; assay type: biochemical
# T1 construct: endogenous in cells; host or cells: Zymomonas mobilis cells (enzyme extracted and purified from the organism itself)
# T1 sequence (Q03417 1-301): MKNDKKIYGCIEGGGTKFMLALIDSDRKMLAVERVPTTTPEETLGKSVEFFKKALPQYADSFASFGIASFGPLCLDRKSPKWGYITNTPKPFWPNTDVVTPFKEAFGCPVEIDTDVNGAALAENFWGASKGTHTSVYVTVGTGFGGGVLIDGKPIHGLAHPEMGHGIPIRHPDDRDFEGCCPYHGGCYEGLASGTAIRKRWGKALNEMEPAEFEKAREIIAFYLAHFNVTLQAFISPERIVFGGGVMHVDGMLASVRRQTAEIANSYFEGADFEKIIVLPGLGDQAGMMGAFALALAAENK
# Excerpt: The active enzyme may be concentrated by ultrafiltration and stored frozen or freeze-dried.
# [2] = target: T2, Zymomonas mobilis glucose 6-phosphate dehydrogenase EC 1.1.1.49 (Zymomonas mobilis subsp. mobilis, UniProt P21907); assay type: biochemical; details: assay conditions: 25° C., 50 mM Tris-Cl buffer, pH 8.0
# T2 construct: endogenous in cells; host or cells: Zymomonas mobilis cells (enzyme extracted and purified from the organism itself)
# T2 sequence (P21907 1-485): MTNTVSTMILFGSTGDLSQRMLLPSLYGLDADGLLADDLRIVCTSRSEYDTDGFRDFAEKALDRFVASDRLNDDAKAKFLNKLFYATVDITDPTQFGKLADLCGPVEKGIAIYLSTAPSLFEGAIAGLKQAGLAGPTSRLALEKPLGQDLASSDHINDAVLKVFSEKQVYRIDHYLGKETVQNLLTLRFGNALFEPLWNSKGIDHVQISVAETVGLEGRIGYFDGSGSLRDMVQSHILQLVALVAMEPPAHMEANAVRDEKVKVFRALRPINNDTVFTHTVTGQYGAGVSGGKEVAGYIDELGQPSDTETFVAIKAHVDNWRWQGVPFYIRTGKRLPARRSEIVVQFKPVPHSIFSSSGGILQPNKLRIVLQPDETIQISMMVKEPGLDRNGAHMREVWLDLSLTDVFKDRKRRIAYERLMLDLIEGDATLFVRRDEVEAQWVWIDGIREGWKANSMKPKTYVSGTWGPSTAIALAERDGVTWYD
# [3] = substrate: NC(=O)c1ccc[n+]([C@@H]2O[C@H](COP(=O)([O-])OP(=O)(O)OC[C@H]3O[C@@H](n4cnc5c(N)ncnc54)[C@H](O)[C@@H]3O)[C@@H](O)[C@H]2O)c1; assay: purified protein, by the assay type; assay type: biochemical, Zymomonas mobilis; details: other: assay conditions printed: 25° C., 50 mM Tris-Cl buffer, pH 8.0
# [4] = substrate: NC(=O)c1ccc[n+]([C@@H]2O[C@H](COP(=O)([O-])OP(=O)(O)OC[C@H]3O[C@@H](n4cnc5c(N)ncnc54)[C@H](OP(=O)(O)O)[C@@H]3O)[C@@H](O)[C@H]2O)c1; assay: purified protein, by the assay type; details: other: assay conditions printed: 25° C., 50 mM Tris-Cl buffer, pH 8.0, pH 8.0
# [5] = substrate: Nc1ncnc2c1ncn2[C@@H]1O[C@H](COP(=O)(O)OP(=O)(O)OP(=O)(O)O)[C@@H](O)[C@H]1O; assay: Kinetic properties and sugar specificity of purified glucokinase; assay type: biochemical, Zymomonas mobilis; details: other: approximate values, assay conditions: 25° C., 50 mM K-Morpholinopropane sulphonate, 30 mM NaCl, 2 mM MgCl2, pH 6.8
# [6] = substrate: OC[C@H]1OC(O)[C@H](O)[C@@H](O)[C@@H]1O; assay: purified protein, by the assay type; details: other: approximate values, assay conditions: 25° C., 50 mM K-Morpholinopropane sulphonate, 30 mM NaCl, 2 mM MgCl2, pH 6.8, pH 6.8
# [7] = substrate: O=C(CO)[C@@H](O)[C@H](O)[C@H](O)CO; assay: purified protein, by the assay type; assay type: biochemical, Zymomonas mobilis; details: other: assay conditions printed: 50 mM K-morpholino propane sulphonate buffer, 30 mM NaCl, 2 mM MgCl2 pH 6.8
# [8] = substrate: Nc1ncnc2c1ncn2[C@@H]1O[C@H](COP(=O)(O)OP(=O)(O)OP(=O)(O)O)[C@@H](O)[C@H]1O; assay: purified protein, by the assay type; assay type: biochemical, Zymomonas mobilis; details: other: assay conditions printed: 50 mM K-morpholino propane sulphonate buffer, 30 mM NaCl, 2 mM MgCl2 pH 6.8
molecule,measurement,setting,value
OC[C@H]1OC(O)[C@H](O)[C@@H](O)[C@@H]1O (stereo partly drawn) [glucose],Ki,[1]; competitive inhibitor with fructose,200 µM
same,enzyme activity in the presence of glucose,"[1]; glucose at 5-10 mM or more, low levels of fructose",essentially inactive
glucose 6-phosphate [glucose 6-phosphate dehydrogenase],Km,[2],170 µM
"Zymomonas mobilis glucose 6-phosphate dehydrogenase EC 1.1.1.49 (Zymomonas mobilis subsp. mobilis ZM4 = ATCC 31821) (protein, endogenous in cells; host or cells: Zymomonas mobilis cells (enzyme extracted and purified from the organism itself)) MTNTVSTMILFGSTGDLSQRMLLPSLYGLDADGLLADDLRIVCTSRSEYDTDGFRDFAEKALDRFVASDRLNDDAKAKFLNKLFYATVDITDPTQFGKLADLCGPVEKGIAIYLSTAPSLFEGAIAGLKQAGLAGPTSRLALEKPLGQDLASSDHINDAVLKVFSEKQVYRIDHYLGKETVQNLLTLRFGNALFEPLWNSKGIDHVQISVAETVGLEGRIGYFDGSGSLRDMVQSHILQLVALVAMEPPAHMEANAVRDEKVKVFRALRPINNDTVFTHTVTGQYGAGVSGGKEVAGYIDELGQPSDTETFVAIKAHVDNWRWQGVPFYIRTGKRLPARRSEIVVQFKPVPHSIFSSSGGILQPNKLRIVLQPDETIQISMMVKEPGLDRNGAHMREVWLDLSLTDVFKDRKRRIAYERLMLDLIEGDATLFVRRDEVEAQWVWIDGIREGWKANSMKPKTYVSGTWGPSTAIALAERDGVTWYD",Km,[3],210 µM
same,Km,[4],40 µM
"Zymomonas mobilis glucokinase EC 2.7.1.2 (Zymomonas mobilis subsp. mobilis ZM4 = ATCC 31821) (protein, Glucokinase so obtained is almost homogenous by electrophoretic criteria; endogenous in cells; host or cells: Zymomonas mobilis cells (enzyme extracted and purified from the organism itself)) MEIVAIDIGGTHARFSIAEVSNGRVLSLGEETTFKTAEHASLQLAWERFGEKLGRPLPRAAAIAWAGPVHGEVLKLTNNPWVLRPATLNEKLDIDTHVLINDFGAVAHAVAHMDSSYLDHICGPDEALPSDGVITILGPGTGLGVAHLLRTEGRYFVIETEGGHIDFAPLDRLEDKILARLRERFRRVSIERIISGPGLGNIYEALAAIEGVPFSLLDDIKLWQMALEGKDNLAEAALDRFCLSLGAIAGDLALAQGATSVVIGGGVGLRIASHLPESGFRQRFVSKGRFERVMSKIPVKLITYPQPGLLGAAAAYANKYSEVE",Km,[5],800 µM
same,Km,[6],200 µM
"Zymomonas mobilis fructokinase EC 2.7.1.4 (Zymomonas mobilis subsp. mobilis ZM4 = ATCC 31821) (protein, endogenous in cells; host or cells: Zymomonas mobilis cells (enzyme extracted and purified from the organism itself)) MKNDKKIYGCIEGGGTKFMLALIDSDRKMLAVERVPTTTPEETLGKSVEFFKKALPQYADSFASFGIASFGPLCLDRKSPKWGYITNTPKPFWPNTDVVTPFKEAFGCPVEIDTDVNGAALAENFWGASKGTHTSVYVTVGTGFGGGVLIDGKPIHGLAHPEMGHGIPIRHPDDRDFEGCCPYHGGCYEGLASGTAIRKRWGKALNEMEPAEFEKAREIIAFYLAHFNVTLQAFISPERIVFGGGVMHVDGMLASVRRQTAEIANSYFEGADFEKIIVLPGLGDQAGMMGAFALALAAENK",Km,[7],500 µM
same,Km,[8],400 µM

# — patent publication US4623625A, “Enzyme extraction and purification processes” (priority 1983, dated 1986)
